Test [1] has as its target T1, CCR5 (UniProt P51681 1-352, limits assumed).
T1 construct: whole, on cells; L1.2/CCR5 cells for chemotaxis; also called CCR5-expressing CHO membranes; L1.2/CCR5 transfectants
Nature of the test: competition SPA, displacement of 125I-MIP-1α from CCR5 CHO membranes. The method, then:
(§1) The assay was carried out on membranes isolated from CHO transfectants expressing CCR1 and CCR5 from Invitrogen® using a scintillation proximity assay (Alouani, 2000). The unlabelled chemokines were prepared in triplicate by serial dilution in the range of 10⁻⁶ to 10⁻¹² M in 50 mM HEPES pH 7.5, containing 1 mM CaCl₂, 5 mM MgCl₂ and 0.5% bovine serum albumin (binding buffer). Wheatgerm scintillation proximity assay beads (Amersham®) were solubilized at 50 mg/ml in PBS, diluted to 10 mg/ml in binding buffer and put at 250 μg/well. Membranes were diluted to 80 μg/ml in binding buffer and put at 2 μg/well in the assay plates. ¹²⁵I-MIP-1α (Amersham®) was put at 0.1 nM/well and finally unlabelled chemokine was added into the plate. The plates were incubated for 3 h at room temperature with agitation and radioactivity was read with a Wallac counter.

The target in test [2] is T2, CCR1 (UniProt P32246 1-355, limits assumed).
T2 construct: whole, on cells; Membrane preparation of CHO transfectants; also called CCR1-expressing CHO membranes
T2 sequence (looked up): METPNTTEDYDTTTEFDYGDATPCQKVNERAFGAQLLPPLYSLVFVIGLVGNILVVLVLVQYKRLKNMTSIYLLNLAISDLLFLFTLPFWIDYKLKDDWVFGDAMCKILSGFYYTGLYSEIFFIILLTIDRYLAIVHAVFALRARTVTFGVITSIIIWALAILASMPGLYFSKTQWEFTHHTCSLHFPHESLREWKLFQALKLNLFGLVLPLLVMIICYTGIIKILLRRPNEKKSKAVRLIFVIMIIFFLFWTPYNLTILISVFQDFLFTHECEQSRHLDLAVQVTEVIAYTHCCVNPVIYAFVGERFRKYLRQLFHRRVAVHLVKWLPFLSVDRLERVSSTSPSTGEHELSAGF
Nature of the test: competition SPA, displacement of 125I-MIP-1α from CCR1 CHO membranes (FIG. 1). How it is done: FIG. 1: Equilibrium competition binding to CCR1. The binding assay was performed by monitoring the displacement of [¹²⁵I]-MIP-1α from CCR1-expressing CHO membranes. A) PEGylated Ser/Cys variants (S1C, S4C). Added as competitors were: RANTES (□), Met-RANTES (X), S1C-5 kDaPEG-RANTES (▪), S4C-5 kDaPEG-RANTES. B) N-terminal PEGylated wt RANTES variants. Added as competitors were: RANTES (□), Met-RANTES (X), PEG-2 kDa-RANTES (▴), PEG-5 kDa-RANTES (▾).
as §1
On the technique in general: Displacement assays read how much labelled ligand stays bound in the presence of the test substance.

The target of test [3] is T1, CCR5. Nature of the test: competition SPA, displacement of 125I-MIP-1α from CCR5 CHO membranes (FIG. 2). How it is done:
FIG. 2: Equilibrium competition binding to CCR5. The binding assay was performed by monitoring the displacement of [¹²⁵I]-MIP-1α from CCR5-expressing CHO membranes. A) PEGylated Ser/Cys variants. Added as competitors were: RANTES (□), Met-RANTES (x), S1C-5 kDaPEG-RANTES (▪), S4C-5 kDaPEG-RANTES, S5C-5 kDaPEG-RANTES (□). B) N-terminal PEGylated wt RANTES variants. Added as competitors were RANTES (□), Met-RANTES (x), PEG-2 kDa-RANTES (▴), PEG-5 kDa-RANTES (▾).
as §1

The target in test [4] is T2, CCR1. Kind of test: competition SPA, displacement of 125I-MIP-1α from CCR1 CHO membranes. How it is done:
as §1

Data on seven molecules can be found in US20080299072A1 (LABORATOIRES SERONO, published 2008).

As a reminder, the IC50 is the concentration that gives 50% inhibition.

T1 sequence (P51681 whole entry): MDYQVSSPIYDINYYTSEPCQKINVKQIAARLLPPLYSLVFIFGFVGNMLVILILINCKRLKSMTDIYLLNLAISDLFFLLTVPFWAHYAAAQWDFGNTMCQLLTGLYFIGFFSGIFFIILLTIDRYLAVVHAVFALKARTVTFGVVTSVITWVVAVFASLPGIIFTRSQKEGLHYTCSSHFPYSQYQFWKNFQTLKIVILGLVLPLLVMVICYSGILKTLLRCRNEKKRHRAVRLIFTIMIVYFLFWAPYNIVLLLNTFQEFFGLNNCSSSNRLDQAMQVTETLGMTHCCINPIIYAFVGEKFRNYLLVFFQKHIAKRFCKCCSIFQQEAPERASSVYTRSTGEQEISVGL

B1: Met-RANTES (ligand)
chain: MSPYSSDTTPCCFAYIARPLPRAHIKEYFYTSGKCSNPAVVFVTRKNRQVCANPEKKWVREYINSLEMS
notes: The build (Met + mature RANTES) comes from the background description and the name
For B1, the IC50 is 15.2 nM with CCR5 [1], 72 nM in the test with CCR1 [2], 15.5 nM in the test with CCR5 [3] and 73 nM with CCR1 [4].

B2: Mature wildtype (wt) human RANTES (ligand)
chain: SPYSSDTTPCCFAYIARPLPRAHIKEYFYTSGKCSNPAVVFVTRKNRQVCANPEKKWVREYINSLEMS
notes: The mature form was used; also called WT RANTES; CCL5
Regarding B2, the IC50 was found to be 69 nM in the test with CCR1 [2] and 23.3 nM with CCR1 [4].

B3: S5C-5 kDaPEG-RANTES (ligand)
chain: SPYSC(mPEG‑MAL 5 kDa)DTTPCCFAYIARPLPRAHIKEYFYTSGKCSNPAVVFVTRKNRQVCANPEKKWVREYINSLEMS
notes: also called S5C-5 kDa-RANTES
As to B3, the half-inhibitory concentration (IC50) in the test with CCR5 [1] was determined as 902 nM.

B4: S4C-5 kDaPEG-RANTES (ligand)
chain: SPYC(mPEG‑MAL 5 kDa)SDTTPCCFAYIARPLPRAHIKEYFYTSGKCSNPAVVFVTRKNRQVCANPEKKWVREYINSLEMS
notes: This is probably a printing error; also called S4C-5 kDa-RANTES
Take B4: the 50% inhibitory concentration (IC50) in the test with CCR5 [1] stood at 40 nM; in the test with CCR1 [2], 83 nM; with CCR5 [3] it was 45.4 nM; with CCR1 [4] it was 84 nM.

B5: S1C-5 kDaPEG-RANTES (ligand)
chain: C(mPEG‑MAL 5 kDa)PYSSDTTPCCFAYIARPLPRAHIKEYFYTSGKCSNPAVVFVTRKNRQVCANPEKKWVREYINSLEMS
notes: Expressed without a leader; also called S1C-5 kDa-RANTES
For the molecule B5, the IC50 in the test with CCR5 [1] was found to be 41 nM; in the test with CCR1 [2] it was 272 nM; with CCR5 [3] it was 82.5 nM; with CCR1 [4], 167 nM.

B6: PEG-5 kDa-RANTES (ligand)
chain: {mPEG‑ButyrALD 5 kDa}-SPYSSDTTPCCFAYIARPLPRAHIKEYFYTSGKCSNPAVVFVTRKNRQVCANPEKKWVREYINSLEMS
notes: also called N-terminal PEGylated wt RANTES (5 kDa)
Regarding B6, the values for the IC50 with CCR1 [2] and in the test with CCR1 [4] were 47 nM and 50 nM, respectively.

B7: PEG-2 kDa-RANTES (ligand)
chain: {mPEG‑ButyrALD 2 kDa}-SPYSSDTTPCCFAYIARPLPRAHIKEYFYTSGKCSNPAVVFVTRKNRQVCANPEKKWVREYINSLEMS
notes: also called N-terminal PEGylated wt RANTES (2 kDa)
In the case of B7, the IC50 is 41 nM with CCR1 [2] and 43 nM with CCR1 [4].
